Data reported in US20230365623A1, “DERIVATISATION OF PEPTIDES AND PROTEINS” (FLOREY INSTITUTE OF NEUROSCIENCE AND MENTAL HEALTH, priority 2020, published 2023).

Assay: Atomic force microscopy studies for fibrillation (glucagon)
Assay type: physicochemical
Conditions: 287 mM, Milli-Q water pH 2, 37° C., 4 days
Method: For atomic force microscopy experiments, 287 mM solutions of glucagon and glycoglucagon prepared by dissolving each of glucagon and glycoglucagon obtained in Example 9 in Milli-Q water, adjusted to pH 2 with HCl were incubated at 37° C. for four days. Topographic images of glucagon aggregates were collected with a Dimension iCon Atomic Force Microscopy (Bruker, Billerica, MA, USA). Tapping mode atomic force microscopy (AFM) images were recorded using silicon cantilevers (model RTESPA, Veeco, Santa Barbara, CA) with resonance frequency ˜300 kHz, nominal tip radius 8 nm and nominal spring constant 42 N/m.
Representative AFM height images are shown in FIG. 11, of (A) glucagon (287 mM) and (B) glycoglucagon (287 mM) incubated at 37° C. for 4 days. The vertical colour scale is (A) 6 nm and (B) 3 nm. Scan size: 10×5 μm^2. Each of the images of FIG. 11 are representative of 3-5 scans at different locations with varying scan sizes from 1-10 micron.

In the case of “native glucagon: human glucagon peptide (SEQ ID NO:5), synthesised by solid phase synthesis [reference compound]”, the “fibril formation (AFM)” value is reported as “forms fibrils”.
